Biological target: cell-surface MOG-specific IgG1 of 8.18-C5 hybridoma cells
Experiment: flow cytometry on 8.18-C5 hybridoma cells, biotinylated rMOG and FITC-streptavidin

## recombinant, biotinylated MOG (rMOG)
  percent of cells that bound rMOG: > 90%
